Measurements reported in PMC8317952.
Where “and” joins values, the source holds several entries; their conditions need not be identical. Equal values may be shown once.

Key:
[1] = substrate: CCCCCCCCCCCCCCCC(=O)O; test: Steady-state NADPH oxidation; format: biochemical, Bacillus megaterium; details: other: rates of NADPH oxidation, hyperbolic fit, 23 °C, pH 7.4
[2] = substrate: CCCCCCCCCCCCCCOS(=O)(=O)O; test: Steady-state NADPH oxidation; format: biochemical, Bacillus megaterium; details: other: rates of NADPH oxidation, 23 °C, pH 7.4

B1: P450BM-3 (Priestia megaterium NBRC 15308 = ATCC 14581) (protein)
chain: MTIKEMPQPKTFGELKNLPLLNTDKPVQALMKIADELGEIFKFEAPGRVTRYLSSQRLIKEACDESRFDKNLSQALKFVRDFAGDGLFTSWTHEKNWKKAHNILLPSFSQQAMKGYHAMMVDIAVQLVQKWERLNADEHIEVPEDMTRLTLDTIGLCGFNYRFNSFYRDQPHPFITSMVRALDEAMNKLQRANPDDPAYDENKRQFQEDIKVMNDLVDKIIADRKASGEQSDDLLTHMLNGKDPETGEPLDDENIRYQIITFLIAGHETTSGLLSFALYFLVKNPHVLQKAAEEAARVLVDPVPSYKQVKQLKYVGMVLNEALRLWPTAPAFSLYAKEDTVLGGEYPLEKGDELMVLIPQLHRDKTIWGDDVEEFRPERFENPSAIPQHAFKPFGNGQRACIGQQFALHEATLVLGMMLKHFDFEDHTNYELDIKETLTLKPEGFVVKAKSKKIPLGGIPSPSTEQSAKKVRKKAENAHNTPLLVLYGSNMGTAEGTARDLADIAMSKGFAPQVATLDSHAGNLPREGAVLIVTASYNGHPPDNAKQFVDWLDQASADEVKGVRYSVFGCGDKNWATTYQKVPAFIDETLAAKGAENIADRGEADASDDFEGTYEEWREHMWSDVAAYFNLDIENSEDNKSTLSLQFVDSAADMPLAKMHGAFSTNVVASKELQQPGSARSTRHLEIELPKEASYQEGDHLGVIPRNYEGIVNRVTARFGLDASQQIRLEAEEEKLAHLPLAKTVSVEELLQYVELQDPVTRTQLRAMAAKTVCPPHKVELEALLEKQAYKEQVLAKRLTMLELLEKYPACEMKFSEFIALLPSIRPRYYSISSSPRVDEKQASITVSVVSGEAWSGYGEYKGIASNYLAELQEGDTITCFISTPQSEFTLPKDPETPLIMVGPGTGVAPFRGFVQARKQLKEQGQSLGEAHLYFGCRSPHEDYLYQEELENAQSEGIITLHTAFSRMPNQPKTYVQHVMEQDGKKLIELLDQGAHFYICGDGSQMAPAVEATLMKSYADVHQVSEADARLWLQQLEEKGRYAKDVWAG
For B1, the Km [1] was 67 ± 8 µM, the kcat/Km [2] was 7.7e+06 M⁻¹ s⁻¹ and 3e+06 M⁻¹ s⁻¹ and the Km ([2]; hyperbolic fit) was 4.2 ± 0.6 µM. For the same protein, the kcat ([2]; hyperbolic fit) was 32.33 s⁻¹ and the kcat/Km ([2]; hyperbolic fit) was 7.67e+06 ± 1e+06 M⁻¹ s⁻¹.
